Source: IntAct's records for PubMed 18974936

B1: Heavy metal-associated isoprenylated plant protein 26 (Arabidopsis thaliana (Mouse-ear cress)), Q9SZN7 (parent)
chain: MGVLDHVSEMFDCSHGHKIKKRKQLQTVEIKVKMDCEGCERKVRRSVEGMKGVSSVTLEPKAHKVTVVGYVDPNKVVARMSHRTGKKVELWPYVPYDVVAHPYAAGVYDKKAPSGYVRRVDDPGVSQLARASSTEVRYTTAFSDENPAACVVM
partner: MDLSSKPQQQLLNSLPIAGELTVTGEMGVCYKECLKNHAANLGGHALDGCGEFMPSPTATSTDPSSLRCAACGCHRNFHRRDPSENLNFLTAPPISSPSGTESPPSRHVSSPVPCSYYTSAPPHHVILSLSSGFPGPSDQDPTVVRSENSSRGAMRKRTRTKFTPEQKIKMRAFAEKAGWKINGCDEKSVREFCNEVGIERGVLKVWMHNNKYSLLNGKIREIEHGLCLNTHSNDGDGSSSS

Variants of: B1
Settings: with zhd11_arath ZHD11, Q9SEZ1

effect of a mutation on the interaction	Variant
disrupting interaction	MGVLDHVSEMFDCSHGHKIKKRKQLQTVEIKVKMDGEGGERKVRRSVEGMKGVSSVTLEPKAHKVTVVGYVDPNKVVARMSHRTGKKVELWPYVPYDVVAHPYAAGVYDKKAPSGYVRRVDDPGVSQLARASSTEVRYTTAFSDENPAACVVM
